Source: US20120301468A1, “ANTI-MN ANTIBODIES AND METHODS OF USING SAME” (BAYER HEALTHCARE LLC, priority 2005, published 2012)

Target: human MN protein, entire extra-cellular domain with a C-terminal histag, expressed in HKB-11 cells (human), Q16790
Assay: SPR, BIAcore 3000, IgG captured by anti-human IgG Fc, MN as analyte, 1:1 Langmuir fit
Settings: remark: other sources report otherwise

B1: 3a4 full-length human IgG1 (antibody, V domains shown)
VH: QVELVESGGGLVQPGGSLRLSCAASGFTFSDYSINWVRQAPGKGLEYVSNISYSGSSTYYADSVKGRFTISRDNSKNTLYLQMNSLRAEDTAVYYCARFKYSGGSDSWGQGTLVTVSS
VL: DIELTQPPSVSVAPGQTARISCSGDNLPDFYVHWYQQKPGQAPVLVISEDNKRPSGIPERFSGSNSGNTATLTISGTQAEDEADYYCSTYGYTYSYSVFGGGTKLTVL
  Kd: 1 nM
